Source: PMC11372445 (Cell Reports, 2024)

Tests used:
[1] = target: M1-linked diubiquitin (UniProt P0CG47); test: crystal structure
[2] = target: K6 diUb phosphorylated on S65 of the distal Ub (UniProt P0CG47, K6R); test: pull-down
[3] = target: K6 diUb phosphorylated on S65 of the proximal Ub (UniProt P0CG47, K6R); test: pull-down
[4] = target: K6 diUb phosphorylated on S65 of both Ub molecules (UniProt P0CG47, K6R); test: pull-down
[5] = target: M1-linked diubiquitin (UniProt P0CG47); test: pull-down
[6] = target: NEMO UBAN (aa 257–364) (human, UniProt Q9Y6K9 257-364); test: pull-down
[7] = target: the molecule itself; test: crystal structure

B1: HOIP NZF1 (aa 351–379), as crystallised (domain or fragment)
chain: RGRWACQSCTFENEAAAVLCSICERPRLA
Does B1 bind [1]?
Result: binds

B2: GST-tagged TAB2 NZF (aa 585–693) (domain or fragment)
chain: QIPSLEEMQQLRSCNRQLQIDIDCLTKEIDLFQARGPHFNPSAIHNFYDNIGFVGPVPPKPKDQRSIIKTPKTQDTEDDEGAQWNCTACTFLNHPALIRCEQCEMPRHF
What does the source list for B2?
binding result [2]: binds; binding result [3]: binds; binding result [4]: binds

B3: NEMO UBAN (257–364) K285C/C347S chemically ubiquitinated on K285C with Ub G76C (other)
chain 1: GMQLEDLKQQLQQAEEALVAKQEVIDKLCEEAEQHKIVMETVPVLKAQADIYKADFQAERQAREKLAEKKELLQEQLEQLQREYSKLKASSQESARIEDMRKRHVEVS
chain 2: […]
Does B3 bind [5]?
Result: binds

B4: His6-SUMO-HOIP NZF1 (aa 351–379) (domain or fragment)
chain: RGRWACQSCTFENEAAAVLCSICERPRLA
Does B4 bind [6]?
Result: binds

B5: OPTN UBAN (aa 419–512) C472S, S473E (domain or fragment)
chain: DRAVLKELSEKLELAEKALASKQLQMDEMKQTIAKQEEDLETMTILRAQMEVYSEDFHAERAAREKIHEEKEQLALQLAVLLKENDAFEDGGRQ
Does B5 bind [7]?
Result: binds
